Patent publication US8642284

Target: histone H2B (calf thymus), P62808

Protein	mono-ADP-ribosylation activity relative to wild type (Phosphorimaging)	ADP-ribosyl-transferase activity of the immune complex on Protein A-Sepharose beads
recombinant mSir2α mutant G253A (protein) MADEVALALQAAGSPSAAAAMEAASQPADEPLRKRPRRDGPGLGRSPGEPSAAVAPAAAGCEAASAAAPAALWREAAGAAASAEREAPATAVAGDGDNGSGLRREPRAADDFDDDEGEEEDEAAAAAAAAAIGYRDNLLLTDGLLTNGFHSCESDDDDRTSHASSSDWTPRPRIGPYTFVQQHLMIGTDPRTILKDLLPETIPPPELDDMTLWQIVINILSEPPKRKKRKDINTIEDAVKLLQECKKIIVLTAAGVSVSCGIPDFRSRDGIYARLAVDFPDLPDPQAMFDIEYFRKDPRPFFKFAKEIYPGQFQPSLCHKFIALSDKEGKLLRNYTQNIDTLEQVAGIQRILQCHGSFATASCLICKYKVDCEAVRGDIFNQVVPRCPRCPADEPLAIMKPEIVFFGENLPEQFHRAMKYDKDEVDLLIVIGSSLKVRPVALIPSSIPHEVPQILINREPLPHLHFDVELLGDCDVIINELCHRLGGEYAKLCCNPVKLSEITEKPPRPQKELVHLSELPPTPLHISEDSSSPERTVPQDSSVIATLVDQATNNNVNDLEVSESSCVEEKPQEVQTSRNVENINVENPDFKAVGSSTADKNERTSVAETVRKCWPNRLAKEQISKRLEGNQYLFVPPNRYIFHGAEVYSDSEDDVLSSSSCGSNSDSGTCQSPSLEEPLEDESEIEEFYNGLEDDTERPECAGGSGFGADGGDQEVVNEAIATRQELTDVNYPSDKS	completely abolished the activity	
recombinant mSir2α mutant T336A (protein) MADEVALALQAAGSPSAAAAMEAASQPADEPLRKRPRRDGPGLGRSPGEPSAAVAPAAAGCEAASAAAPAALWREAAGAAASAEREAPATAVAGDGDNGSGLRREPRAADDFDDDEGEEEDEAAAAAAAAAIGYRDNLLLTDGLLTNGFHSCESDDDDRTSHASSSDWTPRPRIGPYTFVQQHLMIGTDPRTILKDLLPETIPPPELDDMTLWQIVINILSEPPKRKKRKDINTIEDAVKLLQECKKIIVLTGAGVSVSCGIPDFRSRDGIYARLAVDFPDLPDPQAMFDIEYFRKDPRPFFKFAKEIYPGQFQPSLCHKFIALSDKEGKLLRNYAQNIDTLEQVAGIQRILQCHGSFATASCLICKYKVDCEAVRGDIFNQVVPRCPRCPADEPLAIMKPEIVFFGENLPEQFHRAMKYDKDEVDLLIVIGSSLKVRPVALIPSSIPHEVPQILINREPLPHLHFDVELLGDCDVIINELCHRLGGEYAKLCCNPVKLSEITEKPPRPQKELVHLSELPPTPLHISEDSSSPERTVPQDSSVIATLVDQATNNNVNDLEVSESSCVEEKPQEVQTSRNVENINVENPDFKAVGSSTADKNERTSVAETVRKCWPNRLAKEQISKRLEGNQYLFVPPNRYIFHGAEVYSDSEDDVLSSSSCGSNSDSGTCQSPSLEEPLEDESEIEEFYNGLEDDTERPECAGGSGFGADGGDQEVVNEAIATRQELTDVNYPSDKS	completely abolished the activity	
recombinant mSir2α mutant F265A (protein) MADEVALALQAAGSPSAAAAMEAASQPADEPLRKRPRRDGPGLGRSPGEPSAAVAPAAAGCEAASAAAPAALWREAAGAAASAEREAPATAVAGDGDNGSGLRREPRAADDFDDDEGEEEDEAAAAAAAAAIGYRDNLLLTDGLLTNGFHSCESDDDDRTSHASSSDWTPRPRIGPYTFVQQHLMIGTDPRTILKDLLPETIPPPELDDMTLWQIVINILSEPPKRKKRKDINTIEDAVKLLQECKKIIVLTGAGVSVSCGIPDARSRDGIYARLAVDFPDLPDPQAMFDIEYFRKDPRPFFKFAKEIYPGQFQPSLCHKFIALSDKEGKLLRNYTQNIDTLEQVAGIQRILQCHGSFATASCLICKYKVDCEAVRGDIFNQVVPRCPRCPADEPLAIMKPEIVFFGENLPEQFHRAMKYDKDEVDLLIVIGSSLKVRPVALIPSSIPHEVPQILINREPLPHLHFDVELLGDCDVIINELCHRLGGEYAKLCCNPVKLSEITEKPPRPQKELVHLSELPPTPLHISEDSSSPERTVPQDSSVIATLVDQATNNNVNDLEVSESSCVEEKPQEVQTSRNVENINVENPDFKAVGSSTADKNERTSVAETVRKCWPNRLAKEQISKRLEGNQYLFVPPNRYIFHGAEVYSDSEDDVLSSSSCGSNSDSGTCQSPSLEEPLEDESEIEEFYNGLEDDTERPECAGGSGFGADGGDQEVVNEAIATRQELTDVNYPSDKS	completely abolished the activity	
recombinant mSir2α mutant G255A (protein) MADEVALALQAAGSPSAAAAMEAASQPADEPLRKRPRRDGPGLGRSPGEPSAAVAPAAAGCEAASAAAPAALWREAAGAAASAEREAPATAVAGDGDNGSGLRREPRAADDFDDDEGEEEDEAAAAAAAAAIGYRDNLLLTDGLLTNGFHSCESDDDDRTSHASSSDWTPRPRIGPYTFVQQHLMIGTDPRTILKDLLPETIPPPELDDMTLWQIVINILSEPPKRKKRKDINTIEDAVKLLQECKKIIVLTGAAVSVSCGIPDFRSRDGIYARLAVDFPDLPDPQAMFDIEYFRKDPRPFFKFAKEIYPGQFQPSLCHKFIALSDKEGKLLRNYTQNIDTLEQVAGIQRILQCHGSFATASCLICKYKVDCEAVRGDIFNQVVPRCPRCPADEPLAIMKPEIVFFGENLPEQFHRAMKYDKDEVDLLIVIGSSLKVRPVALIPSSIPHEVPQILINREPLPHLHFDVELLGDCDVIINELCHRLGGEYAKLCCNPVKLSEITEKPPRPQKELVHLSELPPTPLHISEDSSSPERTVPQDSSVIATLVDQATNNNVNDLEVSESSCVEEKPQEVQTSRNVENINVENPDFKAVGSSTADKNERTSVAETVRKCWPNRLAKEQISKRLEGNQYLFVPPNRYIFHGAEVYSDSEDDVLSSSSCGSNSDSGTCQSPSLEEPLEDESEIEEFYNGLEDDTERPECAGGSGFGADGGDQEVVNEAIATRQELTDVNYPSDKS	completely abolished the activity	
recombinant mSir2α mutant G270A (protein) MADEVALALQAAGSPSAAAAMEAASQPADEPLRKRPRRDGPGLGRSPGEPSAAVAPAAAGCEAASAAAPAALWREAAGAAASAEREAPATAVAGDGDNGSGLRREPRAADDFDDDEGEEEDEAAAAAAAAAIGYRDNLLLTDGLLTNGFHSCESDDDDRTSHASSSDWTPRPRIGPYTFVQQHLMIGTDPRTILKDLLPETIPPPELDDMTLWQIVINILSEPPKRKKRKDINTIEDAVKLLQECKKIIVLTGAGVSVSCGIPDFRSRDAIYARLAVDFPDLPDPQAMFDIEYFRKDPRPFFKFAKEIYPGQFQPSLCHKFIALSDKEGKLLRNYTQNIDTLEQVAGIQRILQCHGSFATASCLICKYKVDCEAVRGDIFNQVVPRCPRCPADEPLAIMKPEIVFFGENLPEQFHRAMKYDKDEVDLLIVIGSSLKVRPVALIPSSIPHEVPQILINREPLPHLHFDVELLGDCDVIINELCHRLGGEYAKLCCNPVKLSEITEKPPRPQKELVHLSELPPTPLHISEDSSSPERTVPQDSSVIATLVDQATNNNVNDLEVSESSCVEEKPQEVQTSRNVENINVENPDFKAVGSSTADKNERTSVAETVRKCWPNRLAKEQISKRLEGNQYLFVPPNRYIFHGAEVYSDSEDDVLSSSSCGSNSDSGTCQSPSLEEPLEDESEIEEFYNGLEDDTERPECAGGSGFGADGGDQEVVNEAIATRQELTDVNYPSDKS	completely abolished the activity	
recombinant mSir2α mutant S257A (protein) MADEVALALQAAGSPSAAAAMEAASQPADEPLRKRPRRDGPGLGRSPGEPSAAVAPAAAGCEAASAAAPAALWREAAGAAASAEREAPATAVAGDGDNGSGLRREPRAADDFDDDEGEEEDEAAAAAAAAAIGYRDNLLLTDGLLTNGFHSCESDDDDRTSHASSSDWTPRPRIGPYTFVQQHLMIGTDPRTILKDLLPETIPPPELDDMTLWQIVINILSEPPKRKKRKDINTIEDAVKLLQECKKIIVLTGAGVAVSCGIPDFRSRDGIYARLAVDFPDLPDPQAMFDIEYFRKDPRPFFKFAKEIYPGQFQPSLCHKFIALSDKEGKLLRNYTQNIDTLEQVAGIQRILQCHGSFATASCLICKYKVDCEAVRGDIFNQVVPRCPRCPADEPLAIMKPEIVFFGENLPEQFHRAMKYDKDEVDLLIVIGSSLKVRPVALIPSSIPHEVPQILINREPLPHLHFDVELLGDCDVIINELCHRLGGEYAKLCCNPVKLSEITEKPPRPQKELVHLSELPPTPLHISEDSSSPERTVPQDSSVIATLVDQATNNNVNDLEVSESSCVEEKPQEVQTSRNVENINVENPDFKAVGSSTADKNERTSVAETVRKCWPNRLAKEQISKRLEGNQYLFVPPNRYIFHGAEVYSDSEDDVLSSSSCGSNSDSGTCQSPSLEEPLEDESEIEEFYNGLEDDTERPECAGGSGFGADGGDQEVVNEAIATRQELTDVNYPSDKS	completely abolished the activity	
recombinant mSir2α mutant I262A (protein) MADEVALALQAAGSPSAAAAMEAASQPADEPLRKRPRRDGPGLGRSPGEPSAAVAPAAAGCEAASAAAPAALWREAAGAAASAEREAPATAVAGDGDNGSGLRREPRAADDFDDDEGEEEDEAAAAAAAAAIGYRDNLLLTDGLLTNGFHSCESDDDDRTSHASSSDWTPRPRIGPYTFVQQHLMIGTDPRTILKDLLPETIPPPELDDMTLWQIVINILSEPPKRKKRKDINTIEDAVKLLQECKKIIVLTGAGVSVSCGAPDFRSRDGIYARLAVDFPDLPDPQAMFDIEYFRKDPRPFFKFAKEIYPGQFQPSLCHKFIALSDKEGKLLRNYTQNIDTLEQVAGIQRILQCHGSFATASCLICKYKVDCEAVRGDIFNQVVPRCPRCPADEPLAIMKPEIVFFGENLPEQFHRAMKYDKDEVDLLIVIGSSLKVRPVALIPSSIPHEVPQILINREPLPHLHFDVELLGDCDVIINELCHRLGGEYAKLCCNPVKLSEITEKPPRPQKELVHLSELPPTPLHISEDSSSPERTVPQDSSVIATLVDQATNNNVNDLEVSESSCVEEKPQEVQTSRNVENINVENPDFKAVGSSTADKNERTSVAETVRKCWPNRLAKEQISKRLEGNQYLFVPPNRYIFHGAEVYSDSEDDVLSSSSCGSNSDSGTCQSPSLEEPLEDESEIEEFYNGLEDDTERPECAGGSGFGADGGDQEVVNEAIATRQELTDVNYPSDKS	completely abolished the activity	
endogenous mSir2α protein of mouse NIH3T3 cells (protein) ADEVALALQAAGSPSAAAAMEAASQPADEPLRKRPRRDGPGLGRSPGEPSAAVAPAAAGCEAASAAAPAALWREAAGAAASAEREAPATAVAGDGDNGSGLRREPRAADDFDDDEGEEEDEAAAAAAAAAIGYRDNLLLTDGLLTNGFHSCESDDDDRTSHASSSDWTPRPRIGPYTFVQQHLMIGTDPRTILKDLLPETIPPPELDDMTLWQIVINILSEPPKRKKRKDINTIEDAVKLLQECKKIIVLTGAGVSVSCGIPDFRSRDGIYARLAVDFPDLPDPQAMFDIEYFRKDPRPFFKFAKEIYPGQFQPSLCHKFIALSDKEGKLLRNYTQNIDTLEQVAGIQRILQCHGSFATASCLICKYKVDCEAVRGDIFNQVVPRCPRCPADEPLAIMKPEIVFFGENLPEQFHRAMKYDKDEVDLLIVIGSSLKVRPVALIPSSIPHEVPQILINREPLPHLHFDVELLGDCDVIINELCHRLGGEYAKLCCNPVKLSEITEKPPRPQKELVHLSELPPTPLHISEDSSSPERTVPQDSSVIATLVDQATNNNVNDLEVSESSCVEEKPQEVQTSRNVENINVENPDFKAVGSSTADKNERTSVAETVRKCWPNRLAKEQISKRLEGNQYLFVPPNRYIFHGAEVYSDSEDDVLSSSSCGSNSDSGTCQSPSLEEPLEDESEIEEFYNGLEDDTERPECAGGSGFGADGGDQEVVNEAIATRQELTDVNYPSDKS		ADP-ribosyl-transferase activity could be detected for the endogenous mSir2α immunoprecipitated from NIH3T3 whole cell extracts
